The target in data set [1] is T1, CTCF 11 ZF DNA binding domain (UniProt P49711 P49711:266-577).
T1 sequence: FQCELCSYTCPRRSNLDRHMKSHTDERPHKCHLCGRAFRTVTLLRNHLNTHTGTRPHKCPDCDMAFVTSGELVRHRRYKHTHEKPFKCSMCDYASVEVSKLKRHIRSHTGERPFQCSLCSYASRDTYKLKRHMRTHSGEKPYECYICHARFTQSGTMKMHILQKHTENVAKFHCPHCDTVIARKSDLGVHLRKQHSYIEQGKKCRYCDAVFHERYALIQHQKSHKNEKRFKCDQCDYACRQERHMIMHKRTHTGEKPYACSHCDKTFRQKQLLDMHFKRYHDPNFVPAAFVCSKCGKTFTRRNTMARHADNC
Kind of data set: EMSA; among strongest binding. To be noted: tags: pET16b-11ZF construct, TnT reticulocyte lysate (Promega); label: 32P. Here is the method: (§1) Gamma-satellite monomers from human chromosome X and Y were PCR amplified from genomic DNA, cloned into TA vector and sequenced before their analysis by electrophoretic mobility gel-shift assay (EMSA). Binding reactions were carried out in buffer containing standard PBS with 5 μM MgCl₂, 0.1 μM ZnSO4, 1 μM DTT, 0.1% NP40, and 10% glycerol in the presence of poly(deoxyinosinic-deoxy-CMP) and salmon sperm DNA. Reaction mixtures of 20 μL final volume were incubated for 30 minutes at room temperature and then analyzed on 5% nondenaturing gel using polyacrylamide gel electrophoresis (PAGE) in 0.5×TBE buffer. For EMSA with in vitro methylated DNA probes, treatment with the SssI-methylase was done as previously described for CTCF-binding fragments DMD4 and DMD7 of the H19 ICR (Kanduri et al., Curr. Biol., 10:853-856, 2000). The extent of methylation was verified by digestion overnight with Sau96I restriction endonuclease. Methylation interference analysis was carried out as described previously (Filippova et al., 1996; ibid).
Electrophoretic mobility shift assays (EMSA) were performed. A set of overlapping fragments corresponding to an 1′-mer of the human gamma 8, were radiolabeled and incubated with the in vitro translated 11 ZF DNA binding domain of the CTCF protein. Recombinant luciferase protein prepared by the same in vitro translation reaction was used as a negative control. […] The presence of CTCF-binding sites was also checked in the human alpha-satellite DNA array lacking anti-silencing (insulating) activity. None of 11 alpha-satellite monomers analyzed bound the CTCF protein in vitro.

Data set [2] deals with T1, CTCF 11 ZF DNA binding domain. The data set can be described thus: footprint; methylation interference on fragment 11: seven contact guanines (3 sense, 4 antisense); 55 bp core of 100 bp fragment printed. As to conditions: tags: pET16b-11ZF construct, TnT reticulocyte lysate (Promega). The procedure: as §1, with “Binding” for “Gamma-satellite monomers from human chromosome X and Y were PCR amplified from genomic DNA, cloned into TA vector and sequenced before their analysis by electrophoretic mobility gel-shift assay (EMSA). Binding”
To determine the contact guanine residues recognized by CTCF in gamma-satellite DNA, methylation interference assays (a method that identifies guanine residues in the CTCF binding site that make contact with CTCF zinc fingers) were conducted using a ³²P-labeled fragment of the gamma-satellite monomer (fragment #11). A strong interference of guanine methylation with CTCF-DNA binding was found in three and four guanine residues on sense and anti-sense strands, respectively (FIG. 5B). […]

The target is the same in data set [3]. Kind of data set: EMSA; mutation knocked down binding. As to conditions: tags: pET16b-11ZF construct, TnT reticulocyte lysate (Promega). The procedure: as §1
To confirm in vitro mapping results, four guanine residues within the predicted core sequence were selectively mutated, as indicated in FIG. 12. […] To determine if CTCF binding is methylation-dependent, gamma-satellite 8 PCR fragments were methylated with a SssI methyltransferase. […] It is worth noting that in most previously reported cases, methylation prevents CTCF binding (Ohlsson et al., Trends Genet., 17:520-527, 2001).
On the technique in general: A gel shift assay detects complexes by their altered migration in electrophoresis.

For data set [4] the target is unchanged. The data set can be described thus: EMSA; among strongest binding; PBS, Mg, Zn, poly(dI-dC), room temperature; ~250 bp probe containing the monomer. As to conditions: tags: pET16b-11ZF construct, TnT reticulocyte lysate (Promega); label: 32P. The procedure:
as §1
(§2) Electrophoretic mobility shift assays (EMSA) were performed. A set of overlapping fragments corresponding to an 1′-mer of the human gamma 8, were radiolabeled and incubated with the in vitro translated 11 ZF DNA binding domain of the CTCF protein. […] None of 11 alpha-satellite monomers analyzed bound the CTCF protein in vitro.

Data set [5] deals with Luciferase (in vitro translated control) (UniProt P08659 P08659:1-550). The data set can be described thus: EMSA; negative control lysate. As to conditions: tags: Luciferase T7 control DNA (Promega); label: 32P. The procedure:
as §1, §2

The target of data set [6] is T1, CTCF 11 ZF DNA binding domain. Kind of data set: EMSA; CpG methylation does not affect binding. As to conditions: tags: pET16b-11ZF construct, TnT reticulocyte lysate (Promega); label: 32P. Here is the method:
as §1
To confirm in vitro mapping results, four guanine residues within the predicted core sequence were selectively mutated, as indicated in FIG. 12. […] To determine if CTCF binding is methylation-dependent, gamma-satellite 8 PCR fragments were methylated with a SssI methyltransferase. […]

Sequence of Luciferase (in vitro translated control) (P08659 whole entry, one chain of several): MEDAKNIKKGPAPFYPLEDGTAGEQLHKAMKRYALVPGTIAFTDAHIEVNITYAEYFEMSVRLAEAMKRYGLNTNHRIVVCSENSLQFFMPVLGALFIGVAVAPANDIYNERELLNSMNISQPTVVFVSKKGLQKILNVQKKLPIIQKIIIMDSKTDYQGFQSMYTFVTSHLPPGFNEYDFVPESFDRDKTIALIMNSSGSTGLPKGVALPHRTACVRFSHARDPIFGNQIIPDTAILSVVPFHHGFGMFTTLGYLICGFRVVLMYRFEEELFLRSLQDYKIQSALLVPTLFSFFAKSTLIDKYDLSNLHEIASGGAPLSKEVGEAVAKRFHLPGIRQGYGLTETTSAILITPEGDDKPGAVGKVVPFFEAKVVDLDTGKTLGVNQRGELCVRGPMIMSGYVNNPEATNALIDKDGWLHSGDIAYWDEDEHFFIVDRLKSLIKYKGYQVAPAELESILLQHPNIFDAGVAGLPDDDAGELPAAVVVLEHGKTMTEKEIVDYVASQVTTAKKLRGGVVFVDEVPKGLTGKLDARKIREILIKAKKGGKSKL

B1: gamma-satellite 8 fragment 6 (monomer 5) (dsDNA)
DNA 1: CAAAAACAGTGCCGCAGTGTGGCCTGGGCGGGCCACAGGGACTCAGGGAGACGTTGAGG
DNA 2: CCTCAACGTCTCCCTGAGTCCCTGTGGCCCGCCCAGGCCACACTGCGGCACTGTTTTTG
Regarding B1, the binding result in data set [1] is reported as “binds”.

B2: gamma-satellite 8 monomer 8 WT-8 core (dsDNA)
DNA 1: CGAAAATGGGGCCACTGGGTGGCCTGAACGAGCCAAAGGGACTCAGGGTGACACT
DNA 2: AGTGTCACCCTGAGTCCCTTTGGCTCGTTCAGGCCACCCAGTGGCCCCATTTTCG
For the molecule B2, in data set [2], the binding result is reported as “binds”.

B3: gamma-satellite 8 monomer 8 Mu2 (dsDNA)
DNA 1: CGAAAATGGGGCCACTGAGTGGTTTGAATGAGCCAAAGGGACTCAGGGTGACACT
DNA 2: AGTGTCACCCTGAGTCCCTTTGGCTCATTCAAACCACTCAGTGGCCCCATTTTCG
Consider B3, for which, in data set [3], the binding result is listed as “no binding”.

B4: gamma-satellite 8 monomer 8 Mu3 (dsDNA)
DNA 1: CGAAAATGGGGTCATTAGGTGGTCTGAATGAGCCAAAGGGACTCAGGGTGACACT
DNA 2: AGTGTCACCCTGAGTCCCTTTGGCTCATTCAGACCACCTAATGACCCCATTTTCG
For B4, in data set [3], the binding result is “no binding”.

B5: gamma-satellite 8 monomer 8 Mu1 (dsDNA)
DNA 1: CGAAAATGGGGCCACTAAATGGTCTGAACGAGCCAAAGGGACTCAGGGTGACACT
DNA 2: AGTGTCACCCTGAGTCCCTTTGGCTCGTTCAGACCATTTAGTGGCCCCATTTTCG
Turning to B5, in data set [3], the binding result is listed as “no binding”.

B6: gamma-satellite 8 fragment 10 (monomer 7) (dsDNA)
DNA 1: TGAAAACAGGGAGGCAGGGTGGCATGGCCAGGCCGCAGGGACTATGGTGGACATTGTGG
DNA 2: CCACAATGTCCACCATAGTCCCTGCGGCCTGGCCATGCCACCCTGCCTCCCTGTTTTCA
Take B6: the binding result in data set [1] is “binds”.

B7: gamma-satellite 8 fragment 11 (monomer 8) (dsDNA)
DNA 1: CGAAAATGGGGCCACTGGGTGGCCTGAACGAGCCAAAGGGACTCAGGGTGACACTGAGG
DNA 2: CCTCAGTGTCACCCTGAGTCCCTTTGGCTCGTTCAGGCCACCCAGTGGCCCCATTTTCG
For the molecule B7, the binding result in data set [4] is reported as “binds”; in data set [5], “no binding”.

B8: SssI-methylated gamma-satellite 8 fragment (dsDNA)
DNA 1: CGAAAATGGGGCCACTGGGTGGCCTGAACGAGCCAAAGGGACTCAGGGTGACACTGAGG
DNA 2: CCTCAGTGTCACCCTGAGTCCCTTTGGCTCGTTCAGGCCACCCAGTGGCCCCATTTTCG
modifications: 5mC at CpG (SssI)
Regarding B8, the binding result in data set [6] is “binds”.

B9: gamma-satellite 8 fragment 5 (monomer 4) (dsDNA)
DNA 1: CAAAAACAAGGCCGCAGGGTGGCGTGGGCGGGCCGCAGGGACTCAGGTGGAAATTGTGG
DNA 2: CCACAATTTCCACCTGAGTCCCTGCGGCCCGCCCACGCCACCCTGCGGCCTTGTTTTTG
On to B9, for which the binding result in data set [1] was “binds”.

B10: gamma-satellite 8 fragment 8 (monomer 6) (dsDNA)
DNA 1: AGACAACAGGGCGGCTGGATGGCATGGGCCGATCGTAGGAACCCAGGGAGACATTGAGG
DNA 2: CCTCAATGTCTCCCTGGGTTCCTACGATCGGCCCATGCCATCCAGCCGCCCTGTTGTCT
B10: the binding result in data set [1] is on record as “binds”.

The record behind these values is patent US20100022006, “GAMMA SATELLITE INSULATOR SEQUENCES AND THEIR USE IN PREVENTING GENE SILENCING” (THE GOVT. OF THE USA AS REPRESENTED BY THE SECRETA, published 2010).
